Data from paper PMC8531669, “Quantitative proteomics identifies the universally conserved ATPase Ola1p as a positive regulator of heat shock response in Saccharomyces cerevisiae” (The Journal of Biological Chemistry, 2021).

Molecular target: the molecule itself
Test: light scattering coupled to nanoDSF; Ola1p (4 μM in Fig. 3G) in 20 mM PIPES pH 7.0, 100 mM KCl, 1 mM TCEP; temperature ramp 0.5 °C/min from 20 °C to 70 °C; read between 38 and 42 °C

B1: Ola1p (natural protein, S. cerevisiae, UniProt P38219 1-394, looked up)
chain: MPPKKQVEEKKVLLGRPGNNLKAGIVGLANVGKSTFFQAITRCPLGNPANYPFATIDPEEARVIVPSPRFDKLCEIYKKTASEVPAHLTVYDIAGLTKGASAGEGLGNAFLSHIRSVDSIYQVVRCFDDAEIIHVEGDVDPVRDLEIINQELRLKDIEFAQKALEGAEKIAKRGGQSLEVKQKKEEMDLITKIIKLLESGQRVANHSWTSKEVEIINSMFLLTAKPCIYLINLSERDYIRKKNKHLLRIKEWVDKYSPGDLIIPFSVSLEERLSHMSPEDAEEELKKLQTISALPKIITTMRQKLDLISFFTCGPDEVREWTIRRGTKAPQAAGVIHNDLMNTFILAQVMKCEDVFEYKDDSAIKAAGKLMQKGKDYVVEDGDIIYFRAGAGKN
notes: Ola1p (Obg-like ATPase 1), S. cerevisiae, systematic name Ybr025c; The methods say that the MBP tag was cleaved with Precision protease; also called Ybr025c; MBP-Ola1p (before cleavage); source: insect cells (baculovirus expression system), purified (amylose resin, size-exclusion chromatography); not shown: MBP, N-terminal, cleaved
Question: Does B1 bind?
Answer: binds
